Assay results: the supplement of paper PMC9112550, “Optimization of the antimicrobial peptide Bac7 by deep mutational scanning” (BMC Biology, 2022)

System: Escherichia coli TOP10
Experiment: shrunken log2 fold change of peptide-encoding DNA abundance (4.5 h post-induction vs induction); higher = less antimicrobial activity (less host growth inhibition)
Details: time post-induction: 4.5 h; library: site-saturation at positions 5, 18, 19, 20
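Note: peptides expressed intracellularly from a pBAD plasmid library in pooled LB shake-flask culture, induced with 0.3% L-arabinose, DNA abundance read by NGS, three biological replicates, DESeq2 with apeglm shrinkage.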

Row | Sequence | shrunken log2 fold change
1 | RRIRCRPPRLPRPRPRPKDTPRP | 0.382
2 | RRIRCRPPRLPRPRPRPKFCPRP | -0.0358
3 | RRIRCRPPRLPRPRPRPKGGPRP | 0.094
4 | RRIRCRPPRLPRPRPRPKGQPRP | 0.0213
5 | RRIRCRPPRLPRPRPRPKHCPRP | -0.166
6 | RRIRCRPPRLPRPRPRPKIWPRP | 0.121
7 | RRIRCRPPRLPRPRPRPKKCPRP | -0.186
8 | RRIRCRPPRLPRPRPRPKKSPRP | -0.0331
9 | RRIRCRPPRLPRPRPRPKKVPRP | -0.00128
10 | RRIRCRPPRLPRPRPRPKLRPRP | 0.564
11 | RRIRCRPPRLPRPRPRPKMRPRP | -0.00909
12 | RRIRCRPPRLPRPRPRPKPWPRP | 0.275
13 | RRIRCRPPRLPRPRPRPKQEPRP | 0.0247
14 | RRIRCRPPRLPRPRPRPKQPPRP | 0.595
15 | RRIRCRPPRLPRPRPRPKTYPRP | -0.48
16 | RRIRCRPPRLPRPRPRPKVHPRP | -0.0287
17 | RRIRCRPPRLPRPRPRPKWDPRP | 0.13
18 | RRIRCRPPRLPRPRPRPKYVPRP | -0.394
19 | RRIRCRPPRLPRPRPRPLAQPRP | 0.103
20 | RRIRCRPPRLPRPRPRPLCSPRP | -0.399
21 | RRIRCRPPRLPRPRPRPLCYPRP | -0.439
22 | RRIRCRPPRLPRPRPRPLDKPRP | -0.328
23 | RRIRCRPPRLPRPRPRPLEQPRP | 0.0367
24 | RRIRCRPPRLPRPRPRPLEVPRP | -0.174
25 | RRIRCRPPRLPRPRPRPLFKPRP | -0.475

Row | Sequence | shrunken log2 fold change
26 | RRIRCRPPRLPRPRPRPLHVPRP | -0.178
27 | RRIRCRPPRLPRPRPRPLKCPRP | -0.228
28 | RRIRCRPPRLPRPRPRPLKHPRP | -0.584
29 | RRIRCRPPRLPRPRPRPLMPPRP | -0.151
30 | RRIRCRPPRLPRPRPRPLNRPRP | -0.413
31 | RRIRCRPPRLPRPRPRPLNVPRP | -0.186
32 | RRIRCRPPRLPRPRPRPLRYPRP | 0.246
33 | RRIRCRPPRLPRPRPRPLTNPRP | -0.454
34 | RRIRCRPPRLPRPRPRPLTPPRP | 0.292
35 | RRIRCRPPRLPRPRPRPLTWPRP | -0.16
36 | RRIRCRPPRLPRPRPRPLVDPRP | 1.58
37 | RRIRCRPPRLPRPRPRPLVQPRP | 0.245
38 | RRIRCRPPRLPRPRPRPLWAPRP | 0.321
39 | RRIRCRPPRLPRPRPRPLWRPRP | 0.397
40 | RRIRCRPPRLPRPRPRPLYFPRP | -0.836
41 | RRIRCRPPRLPRPRPRPLYMPRP | -0.807
42 | RRIRCRPPRLPRPRPRPMDCPRP | -0.0376
43 | RRIRCRPPRLPRPRPRPMDMPRP | 0.00534
44 | RRIRCRPPRLPRPRPRPMDTPRP | 0.0459
45 | RRIRCRPPRLPRPRPRPMFYPRP | -0.525
46 | RRIRCRPPRLPRPRPRPMHGPRP | 0.0358
47 | RRIRCRPPRLPRPRPRPMIAPRP | 0.111
48 | RRIRCRPPRLPRPRPRPMIPPRP | -0.231
49 | RRIRCRPPRLPRPRPRPMISPRP | -0.235
50 | RRIRCRPPRLPRPRPRPMKLPRP | -0.0356

Row | Sequence | shrunken log2 fold change
51 | RRIRCRPPRLPRPRPRPMMCPRP | 0.0512
52 | RRIRCRPPRLPRPRPRPMNTPRP | -0.727
53 | RRIRCRPPRLPRPRPRPMPLPRP | -0.643
54 | RRIRCRPPRLPRPRPRPMQPPRP | 0.462
55 | RRIRCRPPRLPRPRPRPMSDPRP | 0.113
56 | RRIRCRPPRLPRPRPRPMSSPRP | 0.0481
57 | RRIRCRPPRLPRPRPRPMTDPRP | -0.0858
58 | RRIRCRPPRLPRPRPRPMTFPRP | -0.0603
59 | RRIRCRPPRLPRPRPRPMVEPRP | 0.237
60 | RRIRCRPPRLPRPRPRPMWEPRP | -0.0554
61 | RRIRCRPPRLPRPRPRPMWVPRP | 0.121
62 | RRIRCRPPRLPRPRPRPNANPRP | -0.353
63 | RRIRCRPPRLPRPRPRPNEKPRP | -0.00225
64 | RRIRCRPPRLPRPRPRPNENPRP | -0.0814
65 | RRIRCRPPRLPRPRPRPNEQPRP | 0.256
66 | RRIRCRPPRLPRPRPRPNFFPRP | 0.0889
67 | RRIRCRPPRLPRPRPRPNFSPRP | -0.382
68 | RRIRCRPPRLPRPRPRPNIMPRP | -0.896
69 | RRIRCRPPRLPRPRPRPNKEPRP | -0.189
70 | RRIRCRPPRLPRPRPRPNKKPRP | 0.0294
71 | RRIRCRPPRLPRPRPRPNKRPRP | -0.42
72 | RRIRCRPPRLPRPRPRPNLIPRP | -0.872
73 | RRIRCRPPRLPRPRPRPNLVPRP | -0.192
74 | RRIRCRPPRLPRPRPRPNNAPRP | -0.799
75 | RRIRCRPPRLPRPRPRPNNRPRP | -0.738

Row | Sequence | shrunken log2 fold change
76 | RRIRCRPPRLPRPRPRPNPFPRP | -0.024
77 | RRIRCRPPRLPRPRPRPNPNPRP | -0.135
78 | RRIRCRPPRLPRPRPRPNPSPRP | 0.0638
79 | RRIRCRPPRLPRPRPRPNQEPRP | -0.0562
80 | RRIRCRPPRLPRPRPRPNQWPRP | -0.117
81 | RRIRCRPPRLPRPRPRPNTKPRP | -0.358
82 | RRIRCRPPRLPRPRPRPNVIPRP | -0.374
83 | RRIRCRPPRLPRPRPRPNVKPRP | -0.482
84 | RRIRCRPPRLPRPRPRPNWPPRP | 0.0717
85 | RRIRCRPPRLPRPRPRPNYNPRP | -0.986
86 | RRIRCRPPRLPRPRPRPNYPPRP | -0.427
87 | RRIRCRPPRLPRPRPRPNYVPRP | -0.304
88 | RRIRCRPPRLPRPRPRPPDNPRP | 0.0386
89 | RRIRCRPPRLPRPRPRPPDQPRP | 0.581
90 | RRIRCRPPRLPRPRPRPPEAPRP | 0.968
91 | RRIRCRPPRLPRPRPRPPEQPRP | 2.18
92 | RRIRCRPPRLPRPRPRPPFVPRP | 0.145
93 | RRIRCRPPRLPRPRPRPPGHPRP | 0.422
94 | RRIRCRPPRLPRPRPRPPHWPRP | 0.531
95 | RRIRCRPPRLPRPRPRPPINPRP | -0.319
96 | RRIRCRPPRLPRPRPRPPMTPRP | 0.155
97 | RRIRCRPPRLPRPRPRPPNWPRP | 1.17
98 | RRIRCRPPRLPRPRPRPPPEPRP | 1.32
99 | RRIRCRPPRLPRPRPRPPPYPRP | 0.511
100 | RRIRCRPPRLPRPRPRPPQLPRP | 0.329

Row | Sequence | shrunken log2 fold change
101 | RRIRCRPPRLPRPRPRPPSAPRP | 0.345
102 | RRIRCRPPRLPRPRPRPPTPPRP | 0.776
103 | RRIRCRPPRLPRPRPRPPVAPRP | 0.443
104 | RRIRCRPPRLPRPRPRPPVGPRP | 0.414
105 | RRIRCRPPRLPRPRPRPPWGPRP | 0.122
106 | RRIRCRPPRLPRPRPRPPWHPRP | 0.0193
107 | RRIRCRPPRLPRPRPRPPWPPRP | 0.54
108 | RRIRCRPPRLPRPRPRPPYMPRP | -0.288
109 | RRIRCRPPRLPRPRPRPPYPPRP | -0.193
110 | RRIRCRPPRLPRPRPRPQAKPRP | 0.31
111 | RRIRCRPPRLPRPRPRPQCIPRP | -0.458
112 | RRIRCRPPRLPRPRPRPQDEPRP | -0.0478
113 | RRIRCRPPRLPRPRPRPQDIPRP | -0.213
114 | RRIRCRPPRLPRPRPRPQELPRP | -0.212
115 | RRIRCRPPRLPRPRPRPQFAPRP | -0.239
116 | RRIRCRPPRLPRPRPRPQFCPRP | -0.187
117 | RRIRCRPPRLPRPRPRPQFLPRP | -0.79
118 | RRIRCRPPRLPRPRPRPQFMPRP | -0.59
119 | RRIRCRPPRLPRPRPRPQGFPRP | -0.0235
120 | RRIRCRPPRLPRPRPRPQGGPRP | -0.107
121 | RRIRCRPPRLPRPRPRPQHEPRP | 0.0354
122 | RRIRCRPPRLPRPRPRPQHPPRP | -0.132
123 | RRIRCRPPRLPRPRPRPQIDPRP | -0.0788
124 | RRIRCRPPRLPRPRPRPQIFPRP | 2.2
125 | RRIRCRPPRLPRPRPRPQIKPRP | -0.762

Row | Sequence | shrunken log2 fold change
126 | RRIRCRPPRLPRPRPRPQKSPRP | -0.554
127 | RRIRCRPPRLPRPRPRPQKVPRP | -0.127
128 | RRIRCRPPRLPRPRPRPQLAPRP | 0.163
129 | RRIRCRPPRLPRPRPRPQLMPRP | 0.285
130 | RRIRCRPPRLPRPRPRPQMLPRP | 0.0498
131 | RRIRCRPPRLPRPRPRPQPAPRP | 0.632
132 | RRIRCRPPRLPRPRPRPQPSPRP | 0.228
133 | RRIRCRPPRLPRPRPRPQPTPRP | 0.319
134 | RRIRCRPPRLPRPRPRPQPVPRP | 0.399
135 | RRIRCRPPRLPRPRPRPQQCPRP | -0.219
136 | RRIRCRPPRLPRPRPRPQQGPRP | 0.188
137 | RRIRCRPPRLPRPRPRPQQSPRP | -0.0144
138 | RRIRCRPPRLPRPRPRPQRFPRP | -0.0259
139 | RRIRCRPPRLPRPRPRPQRNPRP | -0.0392
140 | RRIRCRPPRLPRPRPRPQSNPRP | -0.822
141 | RRIRCRPPRLPRPRPRPQVLPRP | -0.0248
142 | RRIRCRPPRLPRPRPRPQWSPRP | -0.169
143 | RRIRCRPPRLPRPRPRPQWVPRP | -0.103
144 | RRIRCRPPRLPRPRPRPQYDPRP | -0.644
145 | RRIRCRPPRLPRPRPRPQYGPRP | -0.142
146 | RRIRCRPPRLPRPRPRPQYYPRP | -0.977
147 | RRIRCRPPRLPRPRPRPRADPRP | 0.454
148 | RRIRCRPPRLPRPRPRPRAEPRP | 0.539
149 | RRIRCRPPRLPRPRPRPRAKPRP | 0.26
150 | RRIRCRPPRLPRPRPRPRCCPRP | -0.245
